First the molecules themselves.
B1: RSPH3 (parent)
chain: FIPAKTGKDVATQILEGELFDFDL
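Further: lentivirally expressed fusions sorted by FACS into six bins by GFP to DsRed ratio, PSI derived from sequencing read proportions per bin multiplied by bin number.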

Variants of B1 are the subject of this series. Briefly: protein stability index of a GFP-peptide fusion (GPS, HEK-293T) (PSI 1-6); higher = more stable. The note with it: c terminus: a fixed tail appended.
For FIPAKTGKDVATQLLEGELFDFDL, the protein stability index is 2.27.
For the variant FIPAKTGKDVATQFLEGELFDFDL, the protein stability index worked out at 1.74.
The same measure for FIPAKTGKDVATQPLEGELFDFDL: 2.21.
The same measure for FIPAKTGKDVATQTLEGELFDFDL: 2.79.
FIPAKTGKDVATQHLEGELFDFDL: the protein stability index worked out at 2.05.
The result for FIPAKTGKDVATQDLEGELFDFDL reads 2.94; that for FIPAKTGKDVATQRLEGELFDFDL, 1.55; that for FIPAKTGKDVATQKLEGELFDFDL, 1.72.
The same measure for FIPAKTGKDVATQELEGELFDFDL: 2.09.
The result for FIPAKTGKDVATQCLEGELFDFDL reads 1.99.
On to FIPAKTGKDVATQVLEGELFDFDL, for which the protein stability index was found to be 2.2.
The result for FIPAKTGKDVATQYLEGELFDFDL reads 2.47; that for FIPAKTGKDVATQWLEGELFDFDL, 2.71; that for FIPAKTGKDVATQALEGELFDFDL, 2.07.
The same measure for FIPAKTGKDVATQGLEGELFDFDL: 1.49.
The result for FIPAKTGKDVATQNLEGELFDFDL reads 1.57; that for FIPAKTGKDVATQMLEGELFDFDL, 2.75.
For FIPAKTGKDVATQQLEGELFDFDL, the protein stability index stood at 1.79.
The result for FIPAKTGKDVATQSLEGELFDFDL reads 1.41; that for FIPAKTGKDVETQILEGELFDFDL, 2.35.
Take FIPAKTGKDVSTQILEGELFDFDL: the protein stability index was found to be 1.87.
The same measure for FIPAKTGKDVLTQILEGELFDFDL: 1.27.
The same measure for FIPAKTGKDVGTQILEGELFDFDL: 2.04; for FIPAKTGKDVRTQILEGELFDFDL: 2.2.
For FIPAKTGKDVQTQILEGELFDFDL, the protein stability index is 1.73.
The result for FIPAKTGKDVITQILEGELFDFDL reads 2; that for FIPAKTGKDVFTQILEGELFDFDL, 2.13.
The same measure for FIPAKTGKDVCTQILEGELFDFDL: 2; for FIPAKTGKDVYTQILEGELFDFDL: 4.25.
The result for FIPAKTGKDVHTQILEGELFDFDL reads 1.8; that for FIPAKTGKDVNTQILEGELFDFDL, 1.68; that for FIPAKTGKDVKTQILEGELFDFDL, 2.24.
For the variant FIPAKTGKDVVTQILEGELFDFDL, the protein stability index came out at 1.94.
The same measure for FIPAKTGKDVMTQILEGELFDFDL: 1.53.
The same measure for FIPAKTGKDVPTQILEGELFDFDL: 1.78; for FIPAKTGKDVTTQILEGELFDFDL: 1.91.
The result for FIPAKTGKDVDTQILEGELFDFDL reads 2.48.
For the variant FIPAKTGKDVAGQILEGELFDFDL, the protein stability index is 1.7.
The result for FIPAKTGKDVALQILEGELFDFDL reads 2.18; that for FIPAKTGKDVAKQILEGELFDFDL, 1.49.
The result for FIPAKTGKDVAMQILEGELFDFDL reads 2.18; that for FIPAKTGKDVAAQILEGELFDFDL, 2.18.
For the variant FIPAKTGKDVASQILEGELFDFDL, the protein stability index was 1.82.
With FIPAKTGKDVAWQILEGELFDFDL, the protein stability index amounted to 3.27.
The same measure for FIPAKTGKDVAIQILEGELFDFDL: 1.85.
For FIPAKTGKDVADQILEGELFDFDL, the protein stability index turned out to be 1.56.
As to FIPAKTGKDVAVQILEGELFDFDL, the protein stability index was 2.98.
Regarding FIPAKTGKDVARQILEGELFDFDL, the protein stability index came out at 2.55.
As for FIPAKTGKDVANQILEGELFDFDL, the protein stability index stood at 1.89.
The result for FIPAKTGKDVAYQILEGELFDFDL reads 1.92; that for FIPAKTGKDVAHQILEGELFDFDL, 1.43.
The same measure for FIPAKTGKDVAEQILEGELFDFDL: 2.04.
The same measure for FIPAKTGKDVAPQILEGELFDFDL: 1.8.
Turning to FIPAKTGKDVAQQILEGELFDFDL, the protein stability index is 1.92.
The same measure for FIPAKTGKDVAFQILEGELFDFDL: 2.73.
The same measure for FIPAKTGKDVACQILEGELFDFDL: 2.02; for FIPAKTGKDVATGILEGELFDFDL: 2.65; for FIPAKTGKDVATRILEGELFDFDL: 1.58.
The same measure for FIPAKTGKDVATAILEGELFDFDL: 1.43; for FIPAKTGKDVATIILEGELFDFDL: 2.43.
FIPAKTGKDVATVILEGELFDFDL: the protein stability index is 2.55.
The result for FIPAKTGKDVATCILEGELFDFDL reads 2.9.
The same measure for FIPAKTGKDVATDILEGELFDFDL: 2.08; for FIPAKTGKDVATNILEGELFDFDL: 1.97.
The same measure for FIPAKTGKDVATLILEGELFDFDL: 2.38; for FIPAKTGKDVATMILEGELFDFDL: 1.67.
In the case of FIPAKTGKDVATKILEGELFDFDL, the protein stability index is 1.78.
The same measure for FIPAKTGKDVATWILEGELFDFDL: 1.95; for FIPAKTGKDVATPILEGELFDFDL: 1.95; for FIPAKTGKDVATTILEGELFDFDL: 1.99.
The same measure for FIPAKTGKDVATYILEGELFDFDL: 2.09.
The same measure for FIPAKTGKDVATSILEGELFDFDL: 2.32; for FIPAKTGKDVATHILEGELFDFDL: 2.62.
FIPAKTGKDVATEILEGELFDFDL: the protein stability index came to 1.65.
The result for FIPAKTGKDVATFILEGELFDFDL reads 2.07; that for FIPAKTGKDVATQIEEGELFDFDL, 2.79; that for FIPAKTGKDVATQIFEGELFDFDL, 2.18.
The same measure for FIPAKTGKDVATQIAEGELFDFDL: 1.74; for FIPAKTGKDVATQIDEGELFDFDL: 2.58; for FIPAKTGKDVATQIGEGELFDFDL: 1.89.
The result for FIPAKTGKDVATQICEGELFDFDL reads 1.85; that for FIPAKTGKDYATQILEGELFDFDL, 1.99; that for FIPAKTGKDHATQILEGELFDFDL, 1.82.
As to FIPAKTGKDSATQILEGELFDFDL, the protein stability index came to 1.29.
The result for FIPAKTGKDTATQILEGELFDFDL reads 2.08; that for FIPAKTGKDNATQILEGELFDFDL, 2.12.
The result for FIPAKTGKDWATQILEGELFDFDL reads 2.75.
The same measure for FIPAKTGKDKATQILEGELFDFDL: 1.54; for FIPAKTGKDMATQILEGELFDFDL: 1.58; for FIPAKTGKDQATQILEGELFDFDL: 1.82.
With FIPAKTGKDPATQILEGELFDFDL, the protein stability index is 1.61.
The same measure for FIPAKTGKDLATQILEGELFDFDL: 2.63; for FIPAKTGKDRATQILEGELFDFDL: 1.58.
The result for FIPAKTGKDIATQILEGELFDFDL reads 2.95.

For the origin of these results see the supplement of paper PMC10567573.
